Source: patent EP4803885A1, “PROBE AND USE THEREOF IN IMAGING AND THERAPY” (priority 2023, dated 2025)

Assay: Near-infrared imaging of DIII-EphB4-EBD after conjugation with dye
Assay type: physicochemical
Conditions: after conjugation with near-infrared fluorescent dye, different concentrations, compared with Dye@DIII
From the text: After induction, the supernatant of the BMMY induced expression culture was collected and sequentially filtered through 0.8 µm, 0.45 µm, and 0.22 µm membranes. The filtrate was then purified using an Albupure affinity column. The purified product was subjected to SDS-PAGE and near-infrared imaging for identification. As shown in Fig. 19 (left), the final eluate contained a highly purified product (indicated by the red dashed box).

B1: DIII-EphB4-EBD: fusion protein of albumin DIII and EphB4 ephrin-binding domain (SEQ ID NO: 14), tested after conjugation with near-infrared fluorescent dye (conjugate)
chain: VEEPQNLIKQNCELFEQLGEYKFQNALLVRYTKKVPQVSTPTLVEVSRNLGKVGSKCCKHPEAKRMPCAEDYLSVVLNQLCVLHEKTPVSDRVTKCCTESLVNRRPCFSALEVDETYVPKEFNAETFTFHADICTLSEKERQIKKQTALVELVKHKPKATKEQLKAVMDDFFVEKCCKADDKETCFAEEGKKLVSQLGLGGGGSGGGGSEETLLNTKLETADLKWVTFPQVDGQWEELSGLDEEQHSVRTYEVCDVQRAPGQAHWLRTGWVPRRGAVHVYATLRFTMLECLSLPRAGRSCKETFTVFYYESDADTATALTPAWMENPYIKVDTVAAEHLTRKRPGAEATGKVNVKTLRLGPLSKAGFYLAFQDQGACMALLSLHLFYKKCAQLTV
modifications: near-infrared fluorescent dye conjugated
fluorescence characteristics: fluorescence characteristics consistent with those of the original DIII
